Measured values published in patent US20150344570A1 (published 2015).
Numbering of substitutions follows the chain as printed. Numbers in names are those of the source.

T1: FcgRIIaR (human, UniProt P12318 34-217)
T1 construct: extracellular domain; Allotype R131; also called FcγRIIa R; FcgRIIa type R; not shown: His tag attached to the C terminus
T1 sequence (looked up): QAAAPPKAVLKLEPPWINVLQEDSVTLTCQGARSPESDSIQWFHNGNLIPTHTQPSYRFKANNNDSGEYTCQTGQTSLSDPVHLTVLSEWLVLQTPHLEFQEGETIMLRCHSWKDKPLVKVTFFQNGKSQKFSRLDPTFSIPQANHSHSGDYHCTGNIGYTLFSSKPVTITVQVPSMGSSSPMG

T2: FcgRIIaH (human, UniProt P12318 34-217)
T2 construct: extracellular domain; Allotype H131; also called FcγRIIa H; FcgRIIa type H; not shown: His tag attached to the C terminus
T2 sequence (looked up): T1 sequence (looked up) with R134H

T3: FcgRIIb (human, UniProt P31994 43-217)
T3 construct: extracellular domain; also called FcγRIIb; CD32B; not shown: His tag attached to the C terminus
T3 sequence (looked up): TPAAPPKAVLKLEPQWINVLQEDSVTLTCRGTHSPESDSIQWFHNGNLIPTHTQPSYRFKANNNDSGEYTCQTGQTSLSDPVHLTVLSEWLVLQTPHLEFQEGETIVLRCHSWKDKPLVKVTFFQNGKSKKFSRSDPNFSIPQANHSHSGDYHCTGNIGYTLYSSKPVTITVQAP

B1: GpH7-A5/GpH7-B3-03-20W/GpL16-k0 (antibody, human IgG1, kappa)
heavy 1: not shown
heavy 2: not shown
light: DIVMTQSPLSLPVTPGEPASISCQASESLVHSNRNTYLHWYLQKPGQSPQLLIYKVSNRFSGVPDRFSGSGSGTDFTLKISRVEAEDVGVYYCSQNTHVPPTFGQGTKVEIERTVAAPSVFIFPPSDEQLKSGTASVVCLLNNFYPREAKVQWKVDNALQSGNSQESVTEQDSKDSTYSLSSTLTLSKADYEKHKVYACEVTHQGLSSPVTKSFNRGEC
notes: G236W in the GpH7-B3 chain only; also called He Ab G236_20W; GpH7-A5/GpH7-B3 variant G236_20W/GpL16-k0
B2: GpH7-A5/GpH7-B3-01-15Y/GpL16-k0 (antibody, human IgG1, kappa)
heavy 1: not shown
heavy 2: not shown
light: B1 light
notes: L234Y in the GpH7-B3 chain only; also called He Ab L234_15Y; GpH7-A5/GpH7-B3 variant L234_15Y/GpL16-k0
B3: H240-Kn138/H240-Hl147/L73-k0 (antibody, human IgG1, kappa)
heavy 1: QDQLVQSGAEVKKPGASVKVSCKASGFNIKDTYIQWVRQAPGQGLEWMGRIDPLRKQTKYREKFEGRVTITADTSTNTAYMELSSLRSEDTAVYYCVRSGREFDYWGQGTLVTVSSASTKGPSVFPLAPSSKSTSGGTAALGCLVKDYFPEPVTVSWNSGALTSGVHTFPAVLQSSGLYSLSSVVTVPSSSLGTQTYICNVNHKPSNTKVDKKVEPKSCDKTHTCPPCPAPEYYWGPMVFLFPPKPKDTLMISRTPEVTCVVVDVSDEDPEVKFNWYVDGVEVHNAKTKPREEQYNATYRVVSVLTVLHQDWLNGKEYKCKVSNKDWPAPIEKTISKAKGQPREPQVCTLPPSRDELTKNQVSLWCLVKGFYPSDIAVEWESNGQPENNYKTTPPVLDSDGSFFLYSKLTVDKSRWQQGNVFSCSVMHEALHNHYTQKSLSLSP
heavy 2: QDQLVQSGAEVKKPGASVKVSCKASGFNIKDTYIQWVRQAPGQGLEWMGRIDPLRKQTKYREKFEGRVTITADTSTNTAYMELSSLRSEDTAVYYCVRSGREFDYWGQGTLVTVSSASTKGPSVFPLAPSSKSTSGGTAALGCLVKDYFPEPVTVSWNSGALTSGVHTFPAVLQSSGLYSLSSVVTVPSSSLGTQTYICNVNHKPSNTKVDKKVEPKSCDKTHTCPPCPAPELLGGPSVFLFPPKPKDTLMISRTPEVTCVVVDVSHEEPEVKFNWYVDGVEVHNAKTKPREEQYNSTYRVVSVLTVLHQDWLNGKEYKCKVSNDAWPKPIEETISKAKGQPREPQVYTLPPSRCELTKNQVSLSCAVKGFYPSDIAVEWESNGQPENNYKTTPPVLDSDGSFFLVSKLTVDKSRWQQGNVFSCSVMHEALHNHYTQKSLSLSP
light: DIQMTQSPSSLSASVGDRVTITCRASQDIHKYIAWYQQKPGQAPRLLIQYTSTLQPGVPSRFSGSGSGTDYTFTISSLQPEDIATYYCLQYEQLRTFGGGTKVEIKRTVAAPSVFIFPPSDEQLKSGTASVVCLLNNFYPREAKVQWKVDNALQSGNSQESVTEQDSKDSTYSLSSTLTLSKADYEKHKVYACEVTHQGLSSPVTKSFNRGEC
notes: Heterodimerized anti-epiregulin IgG1 antibody; L328W in both H chains
B4: H240-Kn173/H240-Hl068/L73-k0 (antibody, human IgG1, kappa)
heavy 1: B3 heavy 1 with W327L, I331Q
heavy 2: B3 heavy 2 with W327L
light: B3 light
notes: Heterodimerized anti-epiregulin IgG1 antibody; I332Q in H240-Kn120
B5: H240-Kn166/H240-Hl170/L73-k0 (antibody, human IgG1, kappa)
heavy 1: B3 heavy 1 with W327A
heavy 2: B3 heavy 2 with W327A
light: B3 light
notes: Heterodimerized anti-epiregulin IgG1 antibody; L328A in both H chains
B6: H240-Kn172/H240-Hl177/L73-k0 (antibody, human IgG1, kappa)
heavy 1: B3 heavy 1 with W327L, I331M
heavy 2: B3 heavy 2 with W327L, I331Q
light: B3 light
notes: Heterodimerized anti-epiregulin IgG1 antibody; I332M in H240-Kn120 and I332Q in H240-Hl068
B7: H240-Kn178/H240-Hl068/L73-k0 (antibody, human IgG1, kappa)
heavy 1: B3 heavy 1 with W327L, K333Y
heavy 2: B3 heavy 2 with W327L
light: B3 light
notes: Heterodimerized anti-epiregulin IgG1 antibody; K334Y in H240-Kn120
B8: GpH7-TA1/GpH7-B3-15-02A/GpL16-k0 (antibody, human IgG1, kappa)
heavy 1: QVQLVQSGAEVKKPGASVTVSCKASGYTFTDYEMHWIRQPPGEGLEWIGAIDPKTGDTAYSESFQDRVTLTADKSTSTAYMELSSLTSEDTAVYYCTRFYSYTYWGQGTLVTVSSASTKGPSVFPLAPSSKSTSGGTAALGCLVKDYFPEPVTVSWNSGALTSGVHTFPAVLQSSGLYSLSSVVTVPSSSLGTQTYICNVNHKPSNTKVDKKVEPKSCDKTHTCPPCPAPEYLGGPSVFLFPPKPKDTLMISRTPEVTCVVVDVSHEDPEVKFNWYVDGVEVHNAKTKPREEQYNSTYRVVSVLTVLHQDWLNGKEYKCKVSNKALPAPIEKTISKAKGQPREPQVYTLPPSRKELTKNQVSLTCLVKGFYPSDIAVEWESNGQPENNYKTTPPVLDSDGSFFLYSKLTVDKSRWQQGNVFSCSVMHEALHNRYTQKSLSLSP
heavy 2: not shown
light: B1 light
notes: H1 L234Y; H2 S298A
B9: GpH7-TA5/GpH7-B3/GpL16-k0 (antibody, human IgG1, kappa)
heavy 1: B8 heavy 1 with S296A
heavy 2: not shown
light: B1 light
notes: H1 L234Y and S298A
B10: GpH7-TA6/GpH7-B3/GpL16-k0 (antibody, human IgG1, kappa)
heavy 1: B8 heavy 1 with Y232L, G234W, S296A
heavy 2: not shown
light: B1 light
notes: H1 G236W and S298A
B11: GpH7-TA4/GpH7-B3/GpL16-k0 (antibody, human IgG1, kappa)
heavy 1: B8 heavy 1 with G234W
heavy 2: not shown
light: B1 light
notes: H1 L234Y and G236W
B12: GpH7-A5/GpH7-B3-15-02A/GpL16-k0 (antibody, human IgG1, kappa)
heavy 1: not shown
heavy 2: not shown
light: B1 light
notes: H2 S298A
B13: GpH7-TA3/GpH7-B3-03-20W/GpL16-k0 (antibody, human IgG1, kappa)
heavy 1: B8 heavy 1 with Y232L, S296A
heavy 2: not shown
light: B1 light
notes: H1 S298A; H2 G236W
B14: GpH7-TA2/GpH7-B3-01-15Y/GpL16-k0 (antibody, human IgG1, kappa)
heavy 1: B8 heavy 1 with Y232L, G234W
heavy 2: not shown
light: B1 light
notes: H1 G236W; H2 L234Y

Each binder was assayed against T4, FcγRIIIa extracellular domain with C-terminal His tag (human, UniProt P08637 17-208) (assay: SPR (Biacore), one H chain altered; HeCon Ab GpH7-A5/GpH7-B3/GpL16-k0 = 100).
T4 sequence (P08637 17-208): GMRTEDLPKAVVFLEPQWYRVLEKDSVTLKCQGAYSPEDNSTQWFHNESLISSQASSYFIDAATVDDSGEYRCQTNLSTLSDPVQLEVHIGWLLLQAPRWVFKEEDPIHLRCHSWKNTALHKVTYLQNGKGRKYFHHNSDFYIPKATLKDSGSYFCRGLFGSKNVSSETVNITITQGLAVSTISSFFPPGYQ

Row | He/Con_3a [%] | Binder
1 | 135 | B1
2 | 130 | B2

What follows are binders tested against T1, FcgRIIaR (assay: SPR (Biacore); KD of H240-Kn120/H240-Hl068/L73-k0 divided by KD of the sample).
Description: (§1) Analysis of interaction between objective antibody and the FcγR was carried out using Biacore T100 (GE Healthcare), Biacore T200, Biacore A100, and Biacore 4000. HBS-EP+ (GE Healthcare) was used as the running buffer, and the measurement temperature was set to 25° C. Chips produced by immobilizing the antigen peptide by the amine coupling method to a Series S sensor Chip CM5 (GE Healthcare), chips produced by allowing preliminarily biotinylated antigen peptides to interact with and immobilize onto a Series S Sensor Chip SA (certified) (GE Healthcare), chips produced by immobilizing Protein L (ACTIGEN, BioVision) to Series S Sencor Chip CM5 (GE Healthcare), or chips produced by immobilizing Protein A/G (Thermo Scientific) to Series S Sencor Chip CM5 (GE Healthcare) were used. Antibodies of interest were captured onto these chips, and allowed to interact to each FcγR diluted with running buffer. To regenerate and repeatedly use the chip, the antibodies captured onto the chip were washed off by reacting 10 mM glycine-HCl, pH 1.5.

Row | relative KD | Binder
3 | 1.8 | B3
4 | 0.5 | B4
5 | 0.6 | B5
6 | 0.7 | B6
7 | 0.8 | B7

Each binder was assayed against T2, FcgRIIaH in the same assay as above.
Description: as §1

Row | relative KD | Binder
8 | 0.3 | B3
9 | 0.7 | B4
10 | 1.9 | B5
11 | 0.7 | B6
12 | 0.6 | B7

The binders below were run against T3, FcgRIIb in the same assay as above.
Description: as §1

Row | relative KD | Binder
13 | 1.4 | B3
14 | 0.5 | B4
15 | 0.8 | B5
16 | 0.9 | B6
17 | 1.4 | B7

These binders were tested against T5, FcgRIIIaV (human, UniProt P08637 17-208) in the same assay as above.
T5 construct: extracellular domain; Allotype V158; also called FcγRIIIa V; not shown: His tag attached to the C terminus
Description: as §1

T5 sequence (P08637 17-208 F176V limits assumed): as the sequence (P08637 17-208) above, with F160V counted along it

Row | relative KD | Binder
18 | 0 | B3
19 | 0.9 | B4
20 | 0.4 | B5
21 | 1.6 | B6
22 | 1.9 | B7

The binders below were run against T6, FcgRIIIaF (human, UniProt P08637 17-208) in the same assay as above.
T6 construct: extracellular domain; Allotype F158; also called FcγRIIIa F; not shown: His tag attached to the C terminus
Description: as §1

T6 sequence (P08637 17-208): as the sequence (P08637 17-208) above

Row | relative KD | Binder
23 | 0.1 | B3
24 | 1.2 | B4
25 | 0.5 | B5
26 | 1.1 | B6
27 | 1.6 | B7

Each binder was assayed against T7, FcgRIa (human, UniProt P12314 16-292) in the same assay as above.
T7 construct: extracellular domain; Soluble extracellular domain expressed in FreeStyle293 cells; also called FcγRIa; FcγRI; not shown: His tag attached to the C terminus
Description: as §1

T7 sequence (P12314 16-292): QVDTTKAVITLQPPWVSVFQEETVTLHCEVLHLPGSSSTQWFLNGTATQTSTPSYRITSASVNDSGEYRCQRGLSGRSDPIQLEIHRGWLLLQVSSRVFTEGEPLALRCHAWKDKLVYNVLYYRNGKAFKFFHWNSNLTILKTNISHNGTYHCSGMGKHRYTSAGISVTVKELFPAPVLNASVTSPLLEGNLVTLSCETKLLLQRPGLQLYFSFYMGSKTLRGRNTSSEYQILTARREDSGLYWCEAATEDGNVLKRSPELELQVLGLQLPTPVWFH

Row | relative KD | Binder
28 | 0.5 | B3
29 | 1.3 | B4
30 | 2.4 | B5
31 | 0.6 | B6
32 | 0.7 | B7

These binders were tested against T4, FcγRIIIa extracellular domain with … (assay: SPR (Biacore), relative binding activity; GpH7-A5/GpH7-B3/GpL16-k0 = 100).

Row | FcγRIIIa BINDING ACTIVITY [%] | Binder
33 | 140 | B1
34 | 142 | B8
35 | 208 | B9
36 | 131 | B2
37 | 228 | B10
38 | 168 | B11
39 | 163 | B12
40 | 70 | B13
41 | 130 | B14
